Source: US20210395323A1 (UNIVERSIT T STUTTGART, published 2021)

T1: human TNFR2-Fc fusion protein (human, UniProt P20333 23-257)
T1 construct: also called huTNFR2-Fc; huTNFR2
T1 sequence (looked up): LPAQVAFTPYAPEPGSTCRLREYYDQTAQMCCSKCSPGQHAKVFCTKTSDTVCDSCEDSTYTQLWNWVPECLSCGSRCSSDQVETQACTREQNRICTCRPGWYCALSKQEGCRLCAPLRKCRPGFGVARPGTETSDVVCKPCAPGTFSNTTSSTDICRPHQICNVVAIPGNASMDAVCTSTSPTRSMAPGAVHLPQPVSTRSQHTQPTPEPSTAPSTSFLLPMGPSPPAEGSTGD

T2: TNFR2 on human cells (Kym-1 cells; human CD3+ T cells) (human, UniProt P20333 23-461)
T2 sequence (looked up): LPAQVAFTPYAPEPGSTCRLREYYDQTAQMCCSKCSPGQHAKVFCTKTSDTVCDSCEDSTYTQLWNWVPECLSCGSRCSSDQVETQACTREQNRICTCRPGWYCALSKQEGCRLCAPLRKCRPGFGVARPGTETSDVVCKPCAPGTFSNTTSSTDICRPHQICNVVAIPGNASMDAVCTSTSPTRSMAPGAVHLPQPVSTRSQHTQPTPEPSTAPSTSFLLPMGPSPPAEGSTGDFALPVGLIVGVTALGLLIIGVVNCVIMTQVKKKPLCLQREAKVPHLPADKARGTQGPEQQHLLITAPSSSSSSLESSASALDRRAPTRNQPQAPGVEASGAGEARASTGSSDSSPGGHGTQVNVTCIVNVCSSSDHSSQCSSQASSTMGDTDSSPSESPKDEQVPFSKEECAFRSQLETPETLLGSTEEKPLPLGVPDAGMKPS

T3: TNFR2 on BV-2 cells (UniProt P25119 23-474, limits assumed)
T3 sequence (looked up): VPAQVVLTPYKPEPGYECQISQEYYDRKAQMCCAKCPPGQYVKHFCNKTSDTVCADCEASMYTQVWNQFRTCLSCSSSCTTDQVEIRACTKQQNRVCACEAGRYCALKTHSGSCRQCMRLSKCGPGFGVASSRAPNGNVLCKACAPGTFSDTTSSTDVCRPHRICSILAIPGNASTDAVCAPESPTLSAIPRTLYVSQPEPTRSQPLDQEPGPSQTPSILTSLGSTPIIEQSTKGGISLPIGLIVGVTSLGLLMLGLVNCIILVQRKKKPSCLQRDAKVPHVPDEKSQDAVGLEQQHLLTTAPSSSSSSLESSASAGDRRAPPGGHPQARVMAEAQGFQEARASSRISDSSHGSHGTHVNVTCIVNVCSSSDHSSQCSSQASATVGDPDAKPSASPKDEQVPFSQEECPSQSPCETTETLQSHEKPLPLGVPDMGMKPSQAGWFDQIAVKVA

T4: TNFR2 on primary mouse cells (thymocytes and CD3+ T cells of C57BL/6 mice) (mouse, UniProt P25119 23-474)
T4 sequence (looked up): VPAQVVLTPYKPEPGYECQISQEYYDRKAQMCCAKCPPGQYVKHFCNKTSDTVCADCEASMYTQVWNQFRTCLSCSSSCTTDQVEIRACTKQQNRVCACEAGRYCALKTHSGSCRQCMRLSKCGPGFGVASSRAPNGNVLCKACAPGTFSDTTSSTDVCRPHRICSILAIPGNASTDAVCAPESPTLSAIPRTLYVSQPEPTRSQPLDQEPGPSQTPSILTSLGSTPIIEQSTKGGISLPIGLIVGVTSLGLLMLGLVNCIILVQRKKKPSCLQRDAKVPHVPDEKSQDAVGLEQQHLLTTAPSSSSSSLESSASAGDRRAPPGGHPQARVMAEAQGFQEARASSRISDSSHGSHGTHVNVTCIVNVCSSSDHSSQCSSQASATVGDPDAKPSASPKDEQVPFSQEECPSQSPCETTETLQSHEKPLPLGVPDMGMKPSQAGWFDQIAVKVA

T5: mouse TNFR2-Fc fusion protein (mouse, UniProt P25119 23-258, limits assumed)
T5 construct: also called mTNFR2-Fc; mTNFR2
T5 sequence (looked up): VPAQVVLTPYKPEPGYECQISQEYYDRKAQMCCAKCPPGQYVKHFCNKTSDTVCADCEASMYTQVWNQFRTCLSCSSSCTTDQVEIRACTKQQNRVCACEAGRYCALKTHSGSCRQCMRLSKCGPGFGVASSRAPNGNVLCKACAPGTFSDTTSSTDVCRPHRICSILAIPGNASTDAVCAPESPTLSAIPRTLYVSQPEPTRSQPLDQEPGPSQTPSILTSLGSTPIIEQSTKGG


Key:
[1] = biological target: T1, human TNFR2-Fc fusion protein; test: ELISA, huTNFR2-Fc coated at 1 µg/ml, bound protein detected with anti-TNF F6C5
Method: (§1) ELISA plates (Greiner, Frickenhausen, Germany) were coated with huTNFR1-Fc, mTNFR1-Fc, huTNFR2-Fc or mTNFR2-Fc fusion proteins at 1 μg/ml in PBS and incubated at 4° C. overnight. Residual binding sites were blocked with 2% skim milk powder in PBS at RT for 2 hours. ScTNFR2 and the complexes were diluted in 2% skim milk powder in PBS and added at concentrations in the range of 10⁻³ to 10 nM and incubated for 1 hour at RT. Between each step, non-bound proteins were removed by washing 4 times with 0.005% Tween-20 in PBS.
(§2) Bound proteins were detected with mouse monoclonal antibodies to TNF (clone F6C5; 1 μg/ml; incubation for 1 hour at RT) and HRP-conjugated anti-mouse IgG antibodies (diluted 1:10000; incubation for 1 hour at RT), followed by incubation with tetramethylbenzidine (TMB) substrate solution. Reaction was stopped by addition of 1 M H₂SO₄ and the absorbance at 450 nm was determined with a Multiskan FC absorbance reader (Thermo Scientific, Karlsruhe, Germany) and data were analyzed using the software Microsoft Excel and GraphPad Prism 4 (GraphPad, La Jolla, Calif.) (FIG. 5). In Table 3, the calculated EC₅₀ values for the binding of TNF, scTNFR2 and the complexes to immobilized huTNFR2 and mTNFR2 based on the ELISA assay are summarized.

[2] = biological target: T2, TNFR2 on human cells (Kym-1 cells; …); test: cell-based or functional assay
[3] = biological target: T1, human TNFR2-Fc fusion protein; test: quartz crystal microbalance (Attana Cell 200), human TNFR2-Fc immobilised at low density (130 Hz), 37° C
Method: (§3) Affinities of scTNFR2 and the complexes for human TNFR2-Fc were further determined by quartz crystal microbalance measurements using an Attana Cell 200 (Attana, Stockholm, Sweden). Human TNFR2-Fc was chemically immobilized on a carboxyl sensor chip according to the manufacturer's protocol at a high and low density, respectively. Binding experiments were performed in PBST buffer (PBS, 0.1% Tween 20, pH 7.4) with a flow rate of […] at 37° C. The chip was regenerated with 10 mM Glycine-HCl, pH 2.0. Before each measurement, a baseline was measured which was subtracted from the binding curve. Data were collected using the software provided by Attana for the particular device and analyzed by Attaché Office Evaluation software (Attana, Stockholm, Sweden) and TraceDrawer (Ridgview Instruments, Vange, Sweden) (FIG. 6). In Table 4, binding values for the binding of the hexavalent and dodecavalent mouse complexes to TNFR2 are summarized, which have been calculated based on quartz crystal microbalance measurements on a low density chip. In Table 5, binding values for the binding of the sc-mTNFR2 and the hexavalent and dodecavalent mouse proteins to TNFR2 are summarized, which have been calculated based on quartz crystal microbalance measurements on a high density chip.

[4] = biological target: T1, human TNFR2-Fc fusion protein; test: quartz crystal microbalance (Attana Cell 200), human TNFR2-Fc immobilised at high density (270 Hz), 37° C
Method: as §3

TNFR2 on BV-2 cells = biological target: T3, TNFR2 on BV-2 cells; test: cell-based or functional assay
[5] = biological target: T4, TNFR2 on primary mouse cells …; test: cell-based or functional assay
[6] = biological target: T5, mouse TNFR2-Fc fusion protein; test: ELISA, mTNFR2-Fc coated at 1 µg/ml, bound protein detected with anti-TNF F6C5
Method: as §1, §2

EC50 [1] [nM]	Kd [3] [nM]	koff [3] [s⁻¹]	kon [3] [M⁻¹ s⁻¹]	Kd [4] [nM]	koff [4] [s⁻¹]	kon [4] [M⁻¹ s⁻¹]	EC50 values (nM) of Cxcl-2 secretion (BV-2 cells, ELISA) (TNFR2 on BV-2 cells) [nM]	EC50 values (nM) of thymocyte proliferation induction (MTT assay) [5] [nM]	EC50 [6] [nM]	Binder	EC50 values (nM) of cell death induction using Kym-1 cells [2] [nM]
0.094										p53-scTNFR2 (human) (ligand) KKPLDGEYFTLQIRGRERFEMFRELNEALELKDAQAGKEPGAPGGGSGGGSGGGSGGGSGGGSGGSEFLASSRTPSDKPVAHVVANPQAEGQLQWLNRRANALLANGVELRDNQLVVPSEGLYLIYSQVLFKGQGCPSTHVLLTHTISRIAVSYQTKVNLLSAIKSPCQRETPEGAEAKPWYEPIYLGGVFQLEKGDRLSAEINRPDYLNFRESGQVYFGIIALGGGGSSSRTPSDKPVAHVVANPQAEGQLQWLNRRANALLANGVELRDNQLVVPSEGLYLIYSQVLFKGQGCPSTHVLLTHTISRIAVSYQTKVNLLSAIKSPCQRETPEGAEAKPWYEPIYLGGVFQLEKGDRLSAEINRPDYLNFRESGQVYFGIIALGGGGSSSRTPSDKPVAHVVANPQAEGQLQWLNRRANALLANGVELRDNQLVVPSEGLYLIYSQVLFKGQGCPSTHVLLTHTISRIAVSYQTKVNLLSAIKSPCQRETPEGAEAKPWYEPIYLGGVFQLEKGDRLSAEINRPDYLNFRESGQVYFGIIAL	0.0106
	50.9	0.0651	1.28e+06	0.0437	2.69e-05	616000	0.13	0.065	0.0744	p53-sc-mTNFR2 (mouse) (ligand, Dodecavalent tetramer of four subunits) KKPLDGEYFTLQIRGRERFEMFRELNEALELKDAQAGKEPGAPGGGSGGGSGGGSGGGSGGGSGGSGIRSDKPVAHVVANHQVEEQLEWLSQRANALLANGMDLKDNQLVVPADGLYLVYSQVLFKGQGCPDYVLLTHTVSRFAISYQEKVNLLSAVKSPCPKDTPEGAELKPWYEPIYLGGVFQLEKGDQLSAEVNLPKYLNFRESGQVYFGVIALGGGGSSSDKPVAHVVANHQVEEQLEWLSQRANALLANGMDLKDNQLVVPADGLYLVYSQVLFKGQGCPDYVLLTHTVSRFAISYQEKVNLLSAVKSPCPKDTPEGAELKPWYEPIYLGGVFQLEKGDQLSAEVNLPKYLNFRESGQVYFGVIALGGGGSSSDKPVAHVVANHQVEEQLEWLSQRANALLANGMDLKDNQLVVPADGLYLVYSQVLFKGQGCPDYVLLTHTVSRFAISYQEKVNLLSAVKSPCPKDTPEGAELKPWYEPIYLGGVFQLEKGDQLSAEVNLPKYLNFRESGQVYFGVIAL	0.0562
				0.449	0.000399	808000	1.07		1.55	mouse single-chain TNF variant (D221N/A223R, sc-mTNFR2) (ligand, Trivalent single chain; also called TNFR2-selective mouse TNF variant; trivalent (sc-mTNFR2)) SDKPVAHVVANHQVEEQLEWLSQRANALLANGMDLKDNQLVVPADGLYLVYSQVLFKGQGCPDYVLLTHTVSRFAISYQEKVNLLSAVKSPCPKDTPEGAELKPWYEPIYLGGVFQLEKGDQLSAEVNLPKYLNFRESGQVYFGVIALGGGGSSSDKPVAHVVANHQVEEQLEWLSQRANALLANGMDLKDNQLVVPADGLYLVYSQVLFKGQGCPDYVLLTHTVSRFAISYQEKVNLLSAVKSPCPKDTPEGAELKPWYEPIYLGGVFQLEKGDQLSAEVNLPKYLNFRESGQVYFGVIALGGGGSSSDKPVAHVVANHQVEEQLEWLSQRANALLANGMDLKDNQLVVPADGLYLVYSQVLFKGQGCPDYVLLTHTVSRFAISYQEKVNLLSAVKSPCPKDTPEGAELKPWYEPIYLGGVFQLEKGDQLSAEVNLPKYLNFRESGQVYFGVIAL	
	16.1	0.0347	2.16e+06	0.0527	8.77e-05	1.67e+06	0.03	0.0185	0.0452	GCN4-sc-mTNFR2 (mouse) (ligand, Dodecavalent tetramer of four subunits) not shown	0.0057
	118	0.063	533000	0.0615	3.74e-05	607000	0.44	0.07	0.112	EHD2-sc-mTNFR2 (mouse) (ligand, Hexavalent dimer of two subunits; also called hexavalent (EHD2-sc-mTNFR2)) DFTPPTVKILQSSCDGGGHFPPTIQLLCLVSGYTPGTINITWLEDGQVMDVDLSTASTTQEGELASTQSELTLSQKHWLSDRTYTCQVTYQGHTFEDSTKKCADSNGGGSGGGSGGGSGGGSGGGSGGSGIRSDKPVAHVVANHQVEEQLEWLSQRANALLANGMDLKDNQLVVPADGLYLVYSQVLFKGQGCPDYVLLTHTVSRFAISYQEKVNLLSAVKSPCPKDTPEGAELKPWYEPIYLGGVFQLEKGDQLSAEVNLPKYLNFRESGQVYFGVIALGGGGSSSDKPVAHVVANHQVEEQLEWLSQRANALLANGMDLKDNQLVVPADGLYLVYSQVLFKGQGCPDYVLLTHTVSRFAISYQEKVNLLSAVKSPCPKDTPEGAELKPWYEPIYLGGVFQLEKGDQLSAEVNLPKYLNFRESGQVYFGVIALGGGGSSSDKPVAHVVANHQVEEQLEWLSQRANALLANGMDLKDNQLVVPADGLYLVYSQVLFKGQGCPDYVLLTHTVSRFAISYQEKVNLLSAVKSPCPKDTPEGAELKPWYEPIYLGGVFQLEKGDQLSAEVNLPKYLNFRESGQVYFGVIAL	0.453
